Columns and labels:
[1] = molecular target: T1, human DLL1 (Sino Biological, Cat. No. 11635-H08H) (human, UniProt O00548 18-545); assay: ELISA, plate coated with human DLL1 at 1 ug/mL, OD 450nm
T1 construct: also called family protein DLL1
T1 sequence: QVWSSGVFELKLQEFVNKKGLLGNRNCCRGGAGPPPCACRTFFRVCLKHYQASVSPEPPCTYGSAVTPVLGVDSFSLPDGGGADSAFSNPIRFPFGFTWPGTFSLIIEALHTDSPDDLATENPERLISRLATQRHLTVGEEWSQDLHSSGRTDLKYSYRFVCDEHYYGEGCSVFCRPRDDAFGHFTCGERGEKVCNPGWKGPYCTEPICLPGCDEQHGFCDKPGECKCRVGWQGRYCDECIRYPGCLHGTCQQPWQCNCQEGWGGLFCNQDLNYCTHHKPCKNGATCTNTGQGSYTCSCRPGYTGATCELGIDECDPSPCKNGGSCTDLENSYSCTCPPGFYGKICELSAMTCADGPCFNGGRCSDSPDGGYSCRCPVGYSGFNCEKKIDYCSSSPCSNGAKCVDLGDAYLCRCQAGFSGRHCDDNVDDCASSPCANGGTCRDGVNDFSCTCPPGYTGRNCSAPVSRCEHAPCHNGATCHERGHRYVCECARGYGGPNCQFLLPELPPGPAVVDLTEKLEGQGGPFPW
Method: (§1) The antigenic proteins human DLL1 (SinoBiological, cat. No. 11635-H08H) or human DLL4 (SinoBiological, cat. No. 10171-H08H) were dissolved in 1×PBS at a concentration of 1 μg/mL. […] The antigen was washed three times with PBST, 300 μL/well. The antigen was blocked with 1% BSA (in PBST), 200 µL/well, and incubated at 37° C. for 1.5 hours.
(§2) Antibodies to be tested were diluted with 1% BSA (in PBS) at a starting concentration of 100 nM, downwards by a 10-fold gradient for 7 concentrations. The plates were washed three times with PBST, 300 μL/well. The diluted antibody was added to an ELISA plate at 100 μL/well and incubated at room temperature for 2 hours. The antibodies were washed three times with PBST, 300 μL/well. The secondary antibodies (goat anti-human IgG Fc for DLL4 (HRP), 1:20000 dilution; HRP goat anti-mouse IgG (H+L) for DLL1, 1:10000 dilution) were diluted with 1% BSA in PBST. The diluted secondary antibodies were added to the ELISA plate at 100 μL/well and incubated at room temperature for 1 hour. The plates were washed 6 times with PBST, 300 μL/well. The developing solution (TMA and TMB 1:1 mixed) was prepared. The developing solution was added to the plate, 100 μL/well, and incubated in the dark for 5 min. 50 μL of ELISA stop solution was added to the plate and shaken well.

[2] = molecular target: T2, human DLL4 (Sino Biological, Cat. No. 10171-H08H) (human, UniProt Q9NR61 27-529); assay: ELISA, plate coated with human DLL4 at 1 ug/mL, OD 450nm
T2 construct: also called family protein DLL4
Method: as §1, §2

[3] = molecular target: T3, human DLL3 antigen protein (Kactus Biosystems, Cat. No. DLL-HM103) (human, UniProt Q9NYJ7 27-492); assay: SPR (Biacore 8K), antibody captured on anti-human Fc, DLL3 in solution
T3 sequence: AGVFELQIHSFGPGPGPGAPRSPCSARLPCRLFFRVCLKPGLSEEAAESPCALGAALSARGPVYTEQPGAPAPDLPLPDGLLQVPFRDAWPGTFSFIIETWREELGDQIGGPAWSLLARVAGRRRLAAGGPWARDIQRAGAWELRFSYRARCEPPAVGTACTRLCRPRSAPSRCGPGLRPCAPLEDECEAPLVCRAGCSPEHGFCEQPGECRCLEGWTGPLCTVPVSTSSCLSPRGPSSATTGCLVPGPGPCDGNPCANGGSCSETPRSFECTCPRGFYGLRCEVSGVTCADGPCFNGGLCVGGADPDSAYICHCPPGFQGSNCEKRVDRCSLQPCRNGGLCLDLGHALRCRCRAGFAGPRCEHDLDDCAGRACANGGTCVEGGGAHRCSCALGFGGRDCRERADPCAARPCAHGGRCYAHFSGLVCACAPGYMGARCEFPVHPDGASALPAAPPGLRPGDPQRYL
Method: The affinity and kinetic properties of the humanized anti-DLL3 antibody to human DLL3 were analyzed using a Biacore 8K instrument. CM5 chips were activated with EDC and NHS, followed by immobilization of anti-human Fc murine mAb and blocked with ethanolamine.
Human DLL3 was diluted two-fold serially to serial concentrations (100 nM-0.39 nM) and associated for 90 s and dissociated for 600 s at a flow rate of 50 μL/min.
After completion of each round of the experiment, the captured antibody was removed together with the antigen by washing with a 3M MgCl₂ solution at a flow rate of 30 μL/min for 30 s to complete the regeneration of the chip. The raw data were analyzed using Biacore Insight Evaluation Software (3.0.12.15655) software and fitted with a (1:1) Langmuir model with.

[4] = molecular target: T4, Cynomolgus monkey DLL3 antigen protein (Kactus Biosystems, Cat. No. CM103) (Cynomolgus monkey, UniProt Q9NYJ7 27-490 (human entry)); assay: affinity assay with Cynomolgus monkey DLL3 antigen protein (kinetics; method not restated, Biacore as in Example 18 implied)
T4 construct: also called cyno DLL3
T4 chain: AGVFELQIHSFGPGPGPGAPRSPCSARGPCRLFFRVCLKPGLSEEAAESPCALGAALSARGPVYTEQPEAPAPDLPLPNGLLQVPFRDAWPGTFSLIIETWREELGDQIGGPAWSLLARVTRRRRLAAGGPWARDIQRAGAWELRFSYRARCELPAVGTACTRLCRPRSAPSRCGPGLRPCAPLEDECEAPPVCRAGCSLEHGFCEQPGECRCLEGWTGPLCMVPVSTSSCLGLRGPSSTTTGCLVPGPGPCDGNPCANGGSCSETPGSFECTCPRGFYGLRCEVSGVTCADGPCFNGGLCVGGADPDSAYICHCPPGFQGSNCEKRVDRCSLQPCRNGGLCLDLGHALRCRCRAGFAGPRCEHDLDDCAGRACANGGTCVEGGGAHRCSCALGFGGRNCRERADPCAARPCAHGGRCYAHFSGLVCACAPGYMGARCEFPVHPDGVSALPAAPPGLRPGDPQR

T2 sequence (Q9NR61 27-529 limits assumed): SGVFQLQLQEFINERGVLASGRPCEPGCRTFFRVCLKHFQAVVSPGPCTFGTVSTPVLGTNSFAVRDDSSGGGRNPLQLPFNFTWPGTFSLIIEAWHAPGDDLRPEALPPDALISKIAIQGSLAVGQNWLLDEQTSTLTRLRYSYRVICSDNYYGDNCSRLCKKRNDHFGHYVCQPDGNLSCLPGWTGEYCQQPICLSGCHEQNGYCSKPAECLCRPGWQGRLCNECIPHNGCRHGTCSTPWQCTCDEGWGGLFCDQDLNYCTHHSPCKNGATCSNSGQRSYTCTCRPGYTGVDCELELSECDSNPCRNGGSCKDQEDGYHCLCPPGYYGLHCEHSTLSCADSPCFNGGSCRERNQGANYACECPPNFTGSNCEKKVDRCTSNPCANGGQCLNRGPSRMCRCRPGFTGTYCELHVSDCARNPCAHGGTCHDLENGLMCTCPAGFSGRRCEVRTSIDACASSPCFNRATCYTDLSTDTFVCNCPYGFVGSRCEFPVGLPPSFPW

binding result [1]: no binding (tested: 100 nM) | binding result [2]: no binding (tested: 100 nM) | Kd [3]: 0.576 nM | koff [3]: 0.00018 s⁻¹ | kon [3]: 313000 M⁻¹ s⁻¹ | Kd [4]: 0.143 nM | koff [4]: 3.16e-05 s⁻¹ | kon [4]: 221000 M⁻¹ s⁻¹
B1: H2-39E2D11 mouse hybridoma-derived humanized anti-DLL3 antibody (antibody, V domains shown)
VH: QVQLVQSGAEVKKPGASVKVSCKASGYTFISYWITWVRQAPGQGLEWMGDIYPGSGSTTNYNEKFKSRVTMTRDTSTSTVYMELSSLRSEDTAVYYCARETTVGGAYAMDYWGQGTLVTVSS
VL: EIVLTQSPATLSLSPGERATLSCRASQSINNNLHWYQQKPGQAPRLLIKYVSQSISGIPARFSGSGSGTDFTLTISSLEPEDFAVYYCQQTNSWPLTFGGGTKLEIK
